Test [1] concerns the target T1, full length human DLL4 (human, UniProt Q9NR61 27-685).
T1 construct: whole, on cells; also called native DLL4 expressed in HEK293 cells
Put plainly: FMAT competition, supernatant vs Alexa-647 human Notch1/Fc, 293T cells with human DLL4; FMAT competition with Alexa-647 human Notch1/Fc, native human DLL4 on 293T cells, 4 C, n = 3. As to the method: (§1) Transfected and untransfected 239T cells were reconstituted in PBS containing 2% FCS and 5000 transfected and 17500 non-transfected cells were plated in 20 μl into wells of a 384-well tissue culture plate (Corning Costar, catalog #3712). Subsequently, 20 μl of hybridoma supernatant was added and plates were incubated at 4° C. for 1 h, at which time 20 μl of Alexa-647 labeled human Notch1/Fc was added at a final concentration of 6.7 ng/ml. After a further 3 h incubation at 4° C., the amount of bound Notch1/Fc was determined by reading the fluorescence in each well using an FMAT 8200 instrument (Applied Biosystems). Results are expressed as % inhibitions with the minimum inhibition in the assay being determined by the effects of non-DLL4 binding supernatants prepared in a similar way as described in example 2, and the maximum inhibition being defined as the signal obtained in the presence of a saturating concentration of unlabeled Notch1/Fc. N.T.=not tested

The target in test [2] is T2, human Dll1 (human, UniProt O00548 18-723).
T2 construct: whole, on cells
T2 sequence (looked up): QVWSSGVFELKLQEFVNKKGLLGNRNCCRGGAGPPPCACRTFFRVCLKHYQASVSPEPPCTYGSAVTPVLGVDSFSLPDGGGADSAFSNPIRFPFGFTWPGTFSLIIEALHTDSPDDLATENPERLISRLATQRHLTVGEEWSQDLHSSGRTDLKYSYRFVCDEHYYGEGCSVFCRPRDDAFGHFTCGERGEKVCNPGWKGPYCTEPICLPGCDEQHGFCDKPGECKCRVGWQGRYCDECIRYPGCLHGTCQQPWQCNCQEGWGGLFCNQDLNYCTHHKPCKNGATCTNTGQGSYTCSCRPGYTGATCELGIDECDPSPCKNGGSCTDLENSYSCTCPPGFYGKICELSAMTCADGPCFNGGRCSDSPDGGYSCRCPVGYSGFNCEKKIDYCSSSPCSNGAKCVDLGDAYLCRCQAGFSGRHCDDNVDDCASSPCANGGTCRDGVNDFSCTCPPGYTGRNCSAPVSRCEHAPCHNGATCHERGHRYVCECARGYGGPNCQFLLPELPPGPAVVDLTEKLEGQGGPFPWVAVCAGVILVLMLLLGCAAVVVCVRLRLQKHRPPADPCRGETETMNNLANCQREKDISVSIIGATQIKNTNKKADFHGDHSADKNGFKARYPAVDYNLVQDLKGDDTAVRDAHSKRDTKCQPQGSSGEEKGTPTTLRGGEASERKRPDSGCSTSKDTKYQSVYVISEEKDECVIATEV
Put plainly: FACS, up to 300 µg/ml, HEK-293 cells stably overexpressing human Dll1. A general note: In flow cytometry, cells or beads pass a laser one at a time.

Test [3] deals with T3, human Jagged1 (human, UniProt P78504 34-1218).
T3 construct: whole, on cells
Put plainly: FACS, HEK-293 cells stably overexpressing human Jagged1. As to the method:
The ability of the purified antibodies to bind to human Jagged1 and Dll1 was determined by FACS analysis. […] Cells were resuspended in PBS containing 2% FCS and seeded at 50000 cells/well into V-bottomed plates. Anti-DLL4 antibodies diluted in PBS containing 2% FCS were added at a final concentration of 5 or 15 μg/ml and plates were incubated for 1 h at 4° C. […] Data was analyzed by comparing the shift in geometric mean fluorescence in the mock-transfected cells to that observed in the Jagged1- or Dll1-transfected cells and is shown in Tables 16 and 17.

Test [4] addresses T2, human Dll1. The test is described as follows: FACS, HEK-293 cells stably overexpressing human Dll1.
For test [5], the target named is T1, full length human DLL4. The test is described as follows: FMAT, hybridoma supernatant, 293T cells with human DLL4; FMAT, hybridoma supernatant, native full length human DLL4 on live 293T cells, room temperature. The method, then:
Cells diluted in PBS containing 2% FBS were seeded at a density of 3000 expressing and 15000 mock transfected cells per well in 384 well plates (Corning Costar, catalog #3712). Immediately after plating, 15 or 20 μl/well of hybridoma supernatants and 10 μl/well of secondary antibody (Goat anti-human IgG Fc Cy5, final concentration 750 ng/ml) were added and plates incubated for 3 h at room temperature prior to reading the fluorescence on the FMAT 8200 instrument (Applied Biosystems). The binding of human Notch1/Fc chimera (R&D systems, catalog #3647-TK), diluted 1:2 from 2.86 μg/ml was used as a positive control for DLL4 and human Notch3/Fc chimera diluted from 10 μg/ml was used a positive control for binding to Jagged1. Results for 12 hybridoma supernatants showing binding of hybridoma supernatants to human/cynomolgus monkey DLL4 and human Jagged are shown in Table 3.

The target of test [6] is T3, human Jagged1. Put plainly: FACS, up to 300 µg/ml, HEK-293 cells stably overexpressing human Jagged1.
In test [7] the target is T1, full length human DLL4. Put plainly: FMAT competition, supernatant vs Alexa-647 human Notch1/Fc, 293T cells with human DLL4; FMAT competition with Alexa-647 human Notch1/Fc, native human DLL4 on 293T cells, 4 C, n = 2. As to the method:
as §1

The target in test [8] is T1, full length human DLL4. Put plainly: FACS competition vs 0.25 µg/ml human Notch1/Fc, HEK293 cells with human DLL4. The method, then: Further experiments were performed on selected antibodies using HEK293 cells that were stably transfected with either human, mouse or cynomolgus monkey DLL4 using retroviral constructs. In these experiments, anti-DLL4 antibodies (final concentration: 10-0.01 μg/ml) diluted in PBS containing 2% FCS were added to DLL4-expressing HEK 293 cells (50000 cells/well diluted in PBS containing 2% FCS) and incubated for 1 h at 4° C. Subsequently, Alexa-647 labeled human, rat or APC labeled mouse Notch1/Fc (e.g. R&D Systems, catalog #3647-TK-050, 1057-TK-050, 5267-TK-050, respectively) was added at a final concentration of 0.01-0.5 μg/ml and plates were incubated for a further 2 h at 4° C. prior to washing and reading on a FACSCalibur instrument.

The target of test [9] is T1, full length human DLL4. Put plainly: FMAT, hybridoma supernatant, 293T cells with human DLL4. The method in brief: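 Transfected 293T cells (3000 expressing plus 15000 mock-transfected per well), in PBS with 2% FBS, were mixed with hybridoma supernatant and Cy5 goat anti-human IgG Fc (750 ng/ml final). After 3 h at room temperature, binding was read by FMAT fluorescence. Notch1/Fc served as positive control for DLL4 and Notch3/Fc for Jagged1.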

T1 sequence (Q9NR61 27-685): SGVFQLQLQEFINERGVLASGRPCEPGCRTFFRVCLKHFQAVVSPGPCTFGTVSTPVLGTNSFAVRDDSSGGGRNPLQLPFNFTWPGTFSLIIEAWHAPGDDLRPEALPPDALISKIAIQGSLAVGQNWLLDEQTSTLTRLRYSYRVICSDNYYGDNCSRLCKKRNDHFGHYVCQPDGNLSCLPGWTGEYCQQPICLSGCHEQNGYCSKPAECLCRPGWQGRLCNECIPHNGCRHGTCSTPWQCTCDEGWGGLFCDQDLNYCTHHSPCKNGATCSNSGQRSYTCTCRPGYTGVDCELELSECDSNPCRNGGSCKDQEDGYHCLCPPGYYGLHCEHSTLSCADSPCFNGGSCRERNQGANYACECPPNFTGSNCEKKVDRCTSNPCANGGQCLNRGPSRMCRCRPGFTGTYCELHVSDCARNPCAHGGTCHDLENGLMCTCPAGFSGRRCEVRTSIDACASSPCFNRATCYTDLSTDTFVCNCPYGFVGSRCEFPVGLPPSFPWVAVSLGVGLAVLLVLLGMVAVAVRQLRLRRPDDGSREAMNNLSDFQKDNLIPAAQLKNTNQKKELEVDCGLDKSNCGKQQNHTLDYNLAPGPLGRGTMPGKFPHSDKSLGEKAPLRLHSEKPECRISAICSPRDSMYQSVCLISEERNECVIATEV
T3 sequence (P78504 34-1218): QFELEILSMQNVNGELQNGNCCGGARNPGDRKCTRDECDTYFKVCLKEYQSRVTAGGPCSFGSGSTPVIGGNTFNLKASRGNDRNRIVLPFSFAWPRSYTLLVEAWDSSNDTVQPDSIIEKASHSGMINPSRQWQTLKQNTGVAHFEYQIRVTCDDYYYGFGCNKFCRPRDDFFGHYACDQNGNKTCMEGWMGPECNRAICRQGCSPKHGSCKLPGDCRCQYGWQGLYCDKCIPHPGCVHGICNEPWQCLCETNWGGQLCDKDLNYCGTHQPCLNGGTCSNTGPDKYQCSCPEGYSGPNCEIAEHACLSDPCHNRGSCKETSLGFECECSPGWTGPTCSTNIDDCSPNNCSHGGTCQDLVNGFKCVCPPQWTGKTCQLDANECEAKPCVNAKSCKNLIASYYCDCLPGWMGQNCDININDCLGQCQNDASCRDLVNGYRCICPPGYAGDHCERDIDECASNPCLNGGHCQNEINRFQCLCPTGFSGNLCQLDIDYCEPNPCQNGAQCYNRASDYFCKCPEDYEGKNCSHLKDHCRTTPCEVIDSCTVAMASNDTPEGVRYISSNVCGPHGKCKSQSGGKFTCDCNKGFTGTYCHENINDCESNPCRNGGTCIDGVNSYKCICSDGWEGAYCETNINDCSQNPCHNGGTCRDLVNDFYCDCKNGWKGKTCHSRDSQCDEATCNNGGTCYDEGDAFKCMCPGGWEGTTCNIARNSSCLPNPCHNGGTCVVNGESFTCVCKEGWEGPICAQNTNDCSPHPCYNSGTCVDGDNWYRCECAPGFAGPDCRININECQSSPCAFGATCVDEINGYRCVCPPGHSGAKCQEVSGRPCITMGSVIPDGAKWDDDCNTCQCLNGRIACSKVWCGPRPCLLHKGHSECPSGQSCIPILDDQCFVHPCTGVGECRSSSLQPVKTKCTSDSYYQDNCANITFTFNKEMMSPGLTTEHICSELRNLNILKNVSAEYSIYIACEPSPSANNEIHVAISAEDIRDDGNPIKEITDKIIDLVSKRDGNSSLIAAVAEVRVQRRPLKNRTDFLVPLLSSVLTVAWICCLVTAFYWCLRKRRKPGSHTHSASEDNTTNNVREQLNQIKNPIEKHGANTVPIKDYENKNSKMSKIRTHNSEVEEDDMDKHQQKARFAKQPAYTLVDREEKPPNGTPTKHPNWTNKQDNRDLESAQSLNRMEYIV

B1: 4B4 (antibody, IgG4, V domains shown)
VH: QVLLIQSGAEVKKPGASVQVSCKASGYTFTNYGVIWVRQAPGQGLEYMGWISAYNGNTNYAQKLQDRVTMTSDTSTTTAYMELRSLRSDDTAVYYCARELGSSFDYWGQGTLVTVSS
VL: SYELTQPPSVSVSPGQTARITCSGDALPKKYAYWYQQKSGQAPVLVIYEDIKRPSGIPERFSGSSSGTMATLTISGAQVEDEADYYCFSTDNSGDHSVFGGGTKLTVL
notes: Fully human; used for IgG4 rows and where no isotype is printed; also called 4B4 IgG4; 4B4.1
What is called IC50 is the concentration needed to halve the response being measured. A lower IC50 goes with higher potency. In the case of B1, the “% inhibition n = 3” value with full length human DLL4 [1] was found to be 148%. The fold over background in the test with human Dll1 [2] was < 2.5 fold. Also, the binding result in the test with human Jagged1 [3] is listed as “no binding”. Besides, in the test with human Dll1 [4], the binding result is given as “no binding”. In the test with full length human DLL4 [5], the Count was 194, the FL1 came to 9930 and the FL1 x count was determined as 1.93e+06. For the same molecule, the fold over background with human Jagged1 [6] is < 2.5 fold. Moreover, the “% inhibition n = 2” value with full length human DLL4 [7] is 109%. In the test with full length human DLL4 [8], this molecule came in with a half-inhibitory concentration (IC50) of 1.62 nM.

B2: 2H10 (antibody, IgG4, V domains shown)
VH: QVQLVESGGGVVQPGRSLRLSCAASGFTFSRHGMHWVRQAPGKGLEWVAVVWFDGSNIYYADSVKGRFTISRDNSKNTLYLQMNSLRAEDTAMYYCARDSRIAAADYWGQGTLVTVSS
VL: SYELTQPPSVSVSPGQTVSITCSGDKLGDKYVCWYQQKPGQSPVLVIYQESKRPSGIPERFSGSSSGNTATLTISGTQAMDEADYYCQTWDSSLVVFGGGTKLTVL
notes: Fully human; used for IgG4 rows and where no isotype is printed; also called 2H10 IgG4
For the molecule B2, the fold over background with human Dll1 [2] was < 2.5 fold. The binding result with human Jagged1 [3] is “no binding”. For the same molecule, in the test with human Dll1 [4], the binding result is listed as “no binding”. Further, the fold over background with human Jagged1 [6] is < 2.5 fold. In the test with full length human DLL4 [9], this molecule displayed a Count of 191, an FL1 of 10800 and an FL1 x count of 2.06e+06.

B3: 21H3 (antibody, IgG4, V domains shown)
VH: QVQLVQSGAEVKKPGASVKVSCKASGYTFTNYGITWVRQAPGQGPEWMGWISAYNGNTNYAQKLQDRVTVTTDTSTSTAYMELRSLRSDDTAVYYCARDRVPRIPVTTEAFDIWGQGTMVTVSS
VL: QSVLTQPPSASGTPGQRVTISCSGSSSNIGSYFVYWYQQLPGTAPKLLIYRNNQRPSGVPDRFSGSESGTSASLAISGLRSEDEADYYCAAWDDSLSGHWVFGGGTRLTVL
notes: Fully human; used for IgG4 rows and where no isotype is printed; also called 21H3 IgG4
Take B3: in the test with full length human DLL4 [1], the “% inhibition n = 3” value came out at 140%. In the test with full length human DLL4 [5], this molecule yielded a Count of 181, an FL1 of 10500 and an FL1 x count of 1.91e+06. The “% inhibition n = 2” value in the test with full length human DLL4 [7] amounted to 131%. The molecule further had a concentration for half-maximal inhibition (IC50) with full length human DLL4 [8] of 1.59 nM.

B4: 9G8 (antibody, IgG4, V domains shown)
VH: QLQLQESGPGLVKPSETLSLSCTVSGGSISSSSSYWGLIRQPPGKGLEWIGSIYYSGSTYYSPSLKSRVSISVDTSKNQFSLKLSSVTAADTAVYFCARQGYGGHPDVFDIWGQGTMVTVSS
VL: SSELTQSPSVSVSPGQTARITCSGDKLGDVYVCWYQQKTGQSPVLVIYEDTKRPSGIPERFSGSNSGNTATLTISGTQVMDEADYYCQAWDSTTAVIFGGGTKLTVL
notes: Fully human; used for IgG4 rows and where no isotype is printed; also called 9G8 IgG4
Turning to B4, the fold over background with human Dll1 [2] was < 2.5 fold. The fold over background with human Jagged1 [6] was < 2.5 fold. Besides, in the test with full length human DLL4 [9], the Count stood at 198, the FL1 amounted to 9810 and the FL1 x count came out at 1.94e+06.

The record behind these values is US20100196385A1 (AstraZeneca / MedImmune, published 2010).
